The text below walks through data of paper doi:10.1101/2024.03.15.584944 (bioRxiv, 2024).

A word on the Kd: it is a measure of binding affinity in units of concentration. A low value points to higher affinity.

For experiment [1], the target named is T1, C1q (human (endogenous in normal human serum), UniProt P02745 23-245; P02746 28-253; P02747 29-245). As to the kind of experiment: MST.
In experiment [2] the target is T1, C1q. The experiment in a line: ELISA.

T1 sequence (P02745 23-245, chain 1 of 3): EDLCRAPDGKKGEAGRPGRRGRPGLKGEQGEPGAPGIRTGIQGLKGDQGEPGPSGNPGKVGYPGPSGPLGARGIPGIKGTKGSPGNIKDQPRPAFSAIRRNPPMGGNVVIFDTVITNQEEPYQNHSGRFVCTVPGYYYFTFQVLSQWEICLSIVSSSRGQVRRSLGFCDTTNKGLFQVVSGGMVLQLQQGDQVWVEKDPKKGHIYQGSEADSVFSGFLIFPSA
T1 sequence (P02746 28-253, chain 2 of 3): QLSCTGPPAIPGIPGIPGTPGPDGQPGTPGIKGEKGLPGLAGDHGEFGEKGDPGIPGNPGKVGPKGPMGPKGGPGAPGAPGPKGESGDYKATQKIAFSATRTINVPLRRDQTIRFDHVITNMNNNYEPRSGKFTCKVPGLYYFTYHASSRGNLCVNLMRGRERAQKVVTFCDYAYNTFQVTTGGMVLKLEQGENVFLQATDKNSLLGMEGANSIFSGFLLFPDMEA
T1 sequence (P02747 29-245, chain 3 of 3): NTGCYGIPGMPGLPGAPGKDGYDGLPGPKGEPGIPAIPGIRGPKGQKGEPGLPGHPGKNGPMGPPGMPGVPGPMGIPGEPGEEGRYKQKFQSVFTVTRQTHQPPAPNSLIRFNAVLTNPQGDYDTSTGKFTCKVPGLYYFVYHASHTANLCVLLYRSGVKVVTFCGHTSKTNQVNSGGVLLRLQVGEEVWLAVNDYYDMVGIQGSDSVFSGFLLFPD

B1: Zymogen rMASP-3 (enzyme, human, UniProt P48740-2 20-728, looked up)
chain: HTVELNNMFGQIQSPGYPDSYPSDSEVTWNITVPDGFRIKLYFMHFNLESSYLCEYDYVKVETEDQVLATFCGRETTDTEQTPGQEVVLSPGSFMSITFRSDFSNEERFTGFDAHYMAVDVDECKEREDEELSCDHYCHNYIGGYYCSCRFGYILHTDNRTCRVECSDNLFTQRTGVITSPDFPNPYPKSSECLYTIELEEGFMVNLQFEDIFDIEDHPEVPCPYDYIKIKVGPKVLGPFCGEKAPEPISTQSHSVLILFHSDNSGENRGWRLSYRAAGNECPELQPPVHGKIEPSQAKYFFKDQVLVSCDTGYKVLKDNVEMDTFQIECLKDGTWSNKIPTCKIVDCRAPGELEHGLITFSTRNNLTTYKSEIKYSCQEPYYKMLNNNTGIYTCSAQGVWMNKVLGRSLPTCLPECGQPSRSLPSLVKRIIGGRNAEPGLFPWQALIVVEDTSRVPNDKWFGSGALLSASWILTAAHVLRSQRRDTTVIPVSKEHVTVYLGLHDVRDKSGAVNSSAARVVLHPDFNIQNYNHDIALVQLQEPVPLGPHVMPVCLPRLEPEGPAPHMLGLVAGWGISNPNVTVDEIISSGTRTLSDVLQYVKLPVVPHAECKTSYESRSGNYSVTENMFCAGYYEGGKDTCLGDSGGAFVIFDDLSQRWVVQGLVSWGGPEECGSKQVYGVYTKVSNYVDWVWEQMGLPQSVVEPQVER
modifications: RED-tris-NTA dye on the His tag (in the MST only)
As for B1, the Kd in the experiment with C1q [1] turned out to be 0.0696 µM.

B2: rMASP-1 (enzyme, UniProt P48740 20-699, looked up)
chain: HTVELNNMFGQIQSPGYPDSYPSDSEVTWNITVPDGFRIKLYFMHFNLESSYLCEYDYVKVETEDQVLATFCGRETTDTEQTPGQEVVLSPGSFMSITFRSDFSNEERFTGFDAHYMAVDVDECKEREDEELSCDHYCHNYIGGYYCSCRFGYILHTDNRTCRVECSDNLFTQRTGVITSPDFPNPYPKSSECLYTIELEEGFMVNLQFEDIFDIEDHPEVPCPYDYIKIKVGPKVLGPFCGEKAPEPISTQSHSVLILFHSDNSGENRGWRLSYRAAGNECPELQPPVHGKIEPSQAKYFFKDQVLVSCDTGYKVLKDNVEMDTFQIECLKDGTWSNKIPTCKIVDCRAPGELEHGLITFSTRNNLTTYKSEIKYSCQEPYYKMLNNNTGIYTCSAQGVWMNKVLGRSLPTCLPVCGLPKFSRKLMARIFNGRPAQKGTTPWIAMLSHLNGQPFCGGSLLGSSWIVTAAHCLHQSLDPEDPTLRDSDLLSPSDFKIILGKHWRLRSDENEQHLGVKHTTLHPQYDPNTFENDVALVELLESPVLNAFVMPICLPEGPQQEGAMVIVSGWGKQFLQRFPETLMEIEIPIVDHSTCQKAYAPLKKKVTRDMICAGEKEGGKDACAGDSGGPMVTLNRERGQWYLVGTVSWGDDCGKKDRYGVYSYIHHNKDWIQRVTGVRN
In the case of B2, the binding result in the experiment with C1q [2] is recorded as “binds”.

B3: rMAP-1 (natural protein, UniProt P48740-3 20-380, looked up)
chain: HTVELNNMFGQIQSPGYPDSYPSDSEVTWNITVPDGFRIKLYFMHFNLESSYLCEYDYVKVETEDQVLATFCGRETTDTEQTPGQEVVLSPGSFMSITFRSDFSNEERFTGFDAHYMAVDVDECKEREDEELSCDHYCHNYIGGYYCSCRFGYILHTDNRTCRVECSDNLFTQRTGVITSPDFPNPYPKSSECLYTIELEEGFMVNLQFEDIFDIEDHPEVPCPYDYIKIKVGPKVLGPFCGEKAPEPISTQSHSVLILFHSDNSGENRGWRLSYRAAGNECPELQPPVHGKIEPSQAKYFFKDQVLVSCDTGYKVLKDNVEMDTFQIECLKDGTWSNKIPTCKKNEIDLESELKSEQVTE
Turning to B3, the binding result with C1q [2] was “binds”.
